Results reported in US20200332371A1 (UNIVERSITY OF CHICAGO, published 2020).

How the values were obtained:
[1] = target: FKBP-C-term (bacteriophage T7) (UniProt P62942); test: cell-based or functional assay
[2] = target: SspB-C-term (bacteriophage T7) (UniProt P0AFZ3); test: cell-based or functional assay
[3] = target: T1, C-term RNAP (WT) (bacteriophage T7, UniProt P00573 180-883); test: E. coli luciferase transcription reporter (split T7 RNAP complementation)
T1 construct: C-terminal half of T7 RNAP split at position 179, without a fusion partner; expressed in E. coli; A start codon for the unfused half is not described; also called C-terminal split RNAP; C-terminal T7 RNAP
T1 sequence (P00573 180-883 limits assumed): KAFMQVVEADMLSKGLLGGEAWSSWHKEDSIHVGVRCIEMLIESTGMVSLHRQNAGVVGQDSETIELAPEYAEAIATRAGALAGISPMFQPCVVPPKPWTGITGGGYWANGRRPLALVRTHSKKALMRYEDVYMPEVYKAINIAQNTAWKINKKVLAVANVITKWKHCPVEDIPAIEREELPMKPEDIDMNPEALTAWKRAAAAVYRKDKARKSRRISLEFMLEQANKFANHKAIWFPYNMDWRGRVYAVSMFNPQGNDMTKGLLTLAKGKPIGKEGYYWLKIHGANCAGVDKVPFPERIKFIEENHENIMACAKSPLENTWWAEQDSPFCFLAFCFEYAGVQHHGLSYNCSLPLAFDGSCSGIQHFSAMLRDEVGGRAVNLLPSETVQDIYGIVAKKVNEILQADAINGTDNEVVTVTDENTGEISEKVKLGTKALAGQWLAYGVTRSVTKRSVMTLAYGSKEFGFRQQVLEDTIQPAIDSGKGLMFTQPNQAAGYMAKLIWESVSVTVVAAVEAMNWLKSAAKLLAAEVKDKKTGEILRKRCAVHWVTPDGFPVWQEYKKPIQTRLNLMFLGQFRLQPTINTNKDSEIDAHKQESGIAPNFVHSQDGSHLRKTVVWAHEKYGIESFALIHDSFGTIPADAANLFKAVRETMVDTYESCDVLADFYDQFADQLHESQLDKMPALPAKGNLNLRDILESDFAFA
Excerpt: (§1) In vivo transcription assays of split RNAPs. N- and C-terminal halves of the RNAP were cloned into expression vectors, with the N-terminal RNAP under a constitutive promoter and the C-terminal RNAP under the arabinose-inducible promoter (Supplementary FIG. 1). S1030 cells (Carlson, et al., 2014) were transformed by electroporation with three plasmids: (i) an N-terminal RNAP expression plasmid, (ii) a C-terminal expression plasmid, and (iii) a reporter plasmid that encodes luciferase under control of the T7 promoter. The transformed cells were then plated onto agar plates (15 g/L in LB) with 50 μg/mL carbenicillin, 50 μg/mL spectinomycin, 33 μg/mL chloramphenicol, and 10 mM glucose. […] After growth with shaking at 37° C. for 2 h, 150 μL of each culture was transferred to a 96-well black wall, clear bottom plate (Costar), and luminescence and OD600 was measured on a Synergy H4 Hybrid Reader (BioTek). The data were analyzed by dividing the luminscence values by the background-corrected OD600 value, then subtracting out the background from the reporter vector alone. All values were then normalized to the wild-type split RNAP fused to ZA and ZB (data shown in FIG. 1d), which was assigned an arbitrary value of 100, allowing the values from each luminescence plot to be compared to one another. […]

[4] = target: T2, C-ZB (bacteriophage T7, UniProt P00573 180-883); test: as above
T2 construct: also called C-terminal RNAP fused to ZB; ZB-fused C-terminal RNAP
T2 sequence (P00573 180-883, tags or fused parts left off): as the sequence (P00573 180-883 limits assumed) above
Excerpt: as §1

[5] = target: T2, C-ZB; test: cell-based or functional assay

SspB-C-term (bacteriophage T7), sequence (P0AFZ3 6-116, tags or fused parts left off): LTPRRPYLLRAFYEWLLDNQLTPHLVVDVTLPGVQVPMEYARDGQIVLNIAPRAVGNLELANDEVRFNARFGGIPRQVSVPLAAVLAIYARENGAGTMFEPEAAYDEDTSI
FKBP-C-term (bacteriophage T7), sequence (P62942 1-108, tags or fused parts left off): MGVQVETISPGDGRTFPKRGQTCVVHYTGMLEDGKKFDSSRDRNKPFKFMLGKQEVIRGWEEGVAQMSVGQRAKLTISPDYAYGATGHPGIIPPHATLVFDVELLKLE

Molecule: N-term-FRB (from UniProt P42345 2021-2113)
- RNA synthesis in the in vivo luciferase transcription reporter assay (E. coli), with rapamycin [1]: 340 fold

Molecule: N-term-iLID
- transcriptional output (luciferase reporter, E. coli), blue LED light against dark [2]: 26 fold

B1: N-term RNAP (WT) (enzyme)
chain: MNTINIAKNDFSDIELAAIPFNTLADHYGERLAREQLALEHESYEMGEARFRKMFERQLKAGEVADNAAAKPLITTLLPKMIARINDWFEEVKAKRGKRPTAFQFLQEIKPEAVAYITIKTTLACLTSADNTTVQAVASAIGRAIEDEARFGRIRDLEAKHFKKNVEEQLNKRVGHVYK
notes: N-terminal half of T7 RNAP split at position 179, without a fusion partner; expressed in E. coli; also called N-terminal split RNAP; N-terminal T7 RNAP
- binding result [3]: binds
- binding result [4]: binds

B2: N-ZA (other)
chain: MNTINIAKNDFSDIELAAIPFNTLADHYGERLAREQLALEHESYEMGEARFRKMFERQLKAGEVADNAAAKPLITTLLPKMIARINDWFEEVKAKRGKRPTAFQFLQEIKPEAVAYITIKTTLACLTSADNTTVQAVASAIGRAIEDEARFGRIRDLEAKHFKKNVEEQLNKRVGHVYKGGSGSGSSALKKELQANKKELAQLKWELQALKKELAQ
- transcription (luciferase reporter under the T7 promoter, E. coli) [5]: ~5 fold
